According to US20240116985A1 (published 2024):
Each block holds one binder with its values, some of them ahead of it. Starred links: 1 amine or outer side, 2 acyl side, 3 side chain; linkers in the order of their positions; H or OH if unused. Positions of bridges follow the written chain, without caps; N, C: chain ends. Non-standard residues stand in square brackets, D forms with d. Primed or numbered codes have the meaning given here. *: point of attachment. PyrS2″ = (S)-3-amino-1-((pent-4-en-1-yloxy)carbonyl)pyrrolidine-3-carboxylic acid (stapling residue), C=CCCCOC(=O)N1CC[C@@](N[*:1])(C(=O)[*:2])C1; B5(21) = 2-amino-2-(pent-4-en-1-yl)hept-6-enoic acid, bis(4-pentenyl)glycine (stitching residue), C=CCCCC(CCCC=C)(N[*:1])C(=O)[*:2]; B5(3) = 2,2-bis(4-pentenyl)glycine (stitching residue), C=CCCCC(CCCC=C)(N[*:1])C(=O)[*:2]; S6 = (S)-2-amino-2-methyloct-7-enoic acid, C=CCCCC[C@](C)(N[*:1])C(=O)[*:2]; Phe(2-Cl) = N[C@@H](Cc1ccccc1Cl)C(=O)O; Bta = N[C@@H](Cc1csc2ccccc12)C(=O)O; αAllylPro = C=CC[C@@]1(C(=O)O)CCCN1; tBuAla = CC(C)(C)C[C@H](N)C(=O)O; 3Thi = N[C@@H](Cc1ccsc1)C(=O)O; S8 = C=CCCCCCC[C@](C)(N)C(=O)O; Alaol = C[C@@H](CO)N*; Aib = CC(C)(N)C(=O)O

Experiments:
[1] = target: T1, B-cat-Halo (beta-catenin HaloTag Nano-BRET construct) (UniProt P35222 1-781); experiment: cell-based or functional assay
T1 sequence (looked up): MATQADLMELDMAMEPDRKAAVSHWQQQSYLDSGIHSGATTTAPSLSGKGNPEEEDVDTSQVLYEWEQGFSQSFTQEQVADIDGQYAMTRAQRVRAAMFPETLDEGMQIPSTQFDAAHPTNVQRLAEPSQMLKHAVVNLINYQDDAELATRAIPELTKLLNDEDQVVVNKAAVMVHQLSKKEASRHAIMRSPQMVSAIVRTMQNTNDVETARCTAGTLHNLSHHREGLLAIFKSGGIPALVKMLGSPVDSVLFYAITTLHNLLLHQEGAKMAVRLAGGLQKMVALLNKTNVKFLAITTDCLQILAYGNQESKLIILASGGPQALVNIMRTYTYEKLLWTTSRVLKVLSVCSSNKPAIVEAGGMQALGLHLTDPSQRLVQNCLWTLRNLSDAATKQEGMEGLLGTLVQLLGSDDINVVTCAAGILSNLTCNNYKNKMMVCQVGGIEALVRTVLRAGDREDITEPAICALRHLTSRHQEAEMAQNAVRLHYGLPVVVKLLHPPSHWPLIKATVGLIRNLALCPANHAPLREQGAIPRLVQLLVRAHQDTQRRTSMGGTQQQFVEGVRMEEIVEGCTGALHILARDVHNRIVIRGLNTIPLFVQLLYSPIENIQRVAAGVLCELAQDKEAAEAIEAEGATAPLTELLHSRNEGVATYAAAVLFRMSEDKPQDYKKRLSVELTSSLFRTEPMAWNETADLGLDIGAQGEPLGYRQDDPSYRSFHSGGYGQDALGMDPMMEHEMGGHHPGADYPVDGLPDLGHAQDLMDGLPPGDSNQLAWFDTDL

[2] = target: T2, beta-catenin in DLD1 TCF/LEF luciferase reporter cells (UniProt P35222 1-781); experiment: cell-based or functional assay
T2 sequence (looked up): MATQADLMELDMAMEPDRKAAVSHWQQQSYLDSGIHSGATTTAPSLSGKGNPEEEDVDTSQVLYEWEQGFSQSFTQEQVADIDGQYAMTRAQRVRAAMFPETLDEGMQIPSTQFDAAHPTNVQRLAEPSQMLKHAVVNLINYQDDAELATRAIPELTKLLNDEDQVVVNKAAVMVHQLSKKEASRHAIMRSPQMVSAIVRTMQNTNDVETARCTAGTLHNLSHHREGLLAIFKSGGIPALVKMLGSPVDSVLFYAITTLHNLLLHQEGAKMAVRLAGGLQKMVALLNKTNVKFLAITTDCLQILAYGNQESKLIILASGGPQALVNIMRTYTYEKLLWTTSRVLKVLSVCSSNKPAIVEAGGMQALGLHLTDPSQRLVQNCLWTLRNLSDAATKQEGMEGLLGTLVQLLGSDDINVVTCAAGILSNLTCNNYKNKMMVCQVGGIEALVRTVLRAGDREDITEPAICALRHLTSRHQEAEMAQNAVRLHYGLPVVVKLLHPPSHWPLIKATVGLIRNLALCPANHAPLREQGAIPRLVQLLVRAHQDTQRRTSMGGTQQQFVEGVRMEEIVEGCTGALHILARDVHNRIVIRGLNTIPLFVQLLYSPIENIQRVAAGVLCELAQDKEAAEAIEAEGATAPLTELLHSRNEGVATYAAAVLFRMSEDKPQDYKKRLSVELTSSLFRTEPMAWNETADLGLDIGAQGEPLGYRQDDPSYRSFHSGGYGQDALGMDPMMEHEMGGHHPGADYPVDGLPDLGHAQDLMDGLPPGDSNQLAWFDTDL

[3] = target: T3, B-cat-Halo (beta-catenin HaloTag NanoBRET construct expressed in HEK293 cells) (UniProt P35222 1-781); experiment: cell-based or functional assay
T3 sequence (looked up): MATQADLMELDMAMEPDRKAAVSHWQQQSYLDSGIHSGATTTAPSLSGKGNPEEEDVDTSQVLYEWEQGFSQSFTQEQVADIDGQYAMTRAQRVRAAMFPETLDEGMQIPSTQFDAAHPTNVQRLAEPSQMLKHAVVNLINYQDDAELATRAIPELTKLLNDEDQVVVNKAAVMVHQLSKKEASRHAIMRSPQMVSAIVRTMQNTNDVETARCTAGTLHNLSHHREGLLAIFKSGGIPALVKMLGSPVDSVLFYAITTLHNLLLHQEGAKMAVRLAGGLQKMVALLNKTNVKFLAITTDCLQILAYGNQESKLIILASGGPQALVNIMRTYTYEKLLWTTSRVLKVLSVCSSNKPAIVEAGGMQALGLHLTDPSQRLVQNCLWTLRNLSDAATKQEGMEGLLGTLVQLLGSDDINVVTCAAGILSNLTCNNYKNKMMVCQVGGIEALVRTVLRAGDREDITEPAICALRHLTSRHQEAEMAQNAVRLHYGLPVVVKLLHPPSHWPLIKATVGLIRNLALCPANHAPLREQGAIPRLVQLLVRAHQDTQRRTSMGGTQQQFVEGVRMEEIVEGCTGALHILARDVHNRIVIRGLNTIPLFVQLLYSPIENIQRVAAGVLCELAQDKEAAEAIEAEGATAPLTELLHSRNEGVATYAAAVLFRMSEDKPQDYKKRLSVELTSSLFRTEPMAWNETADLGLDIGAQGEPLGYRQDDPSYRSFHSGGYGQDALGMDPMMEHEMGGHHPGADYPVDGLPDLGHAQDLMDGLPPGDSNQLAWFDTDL

[4] = target: T4, full-length beta-Catenin (Uniprot ID P35222) (Homo sapiens (Human), UniProt P35222 1-781); experiment: fluorescence polarization competition; full-length beta-catenin, 5FAM-TCF4(10-53) probe as competitor
T4 construct: The assay protocol says 'full-length'; also called bCat; B-Catenin
T4 sequence: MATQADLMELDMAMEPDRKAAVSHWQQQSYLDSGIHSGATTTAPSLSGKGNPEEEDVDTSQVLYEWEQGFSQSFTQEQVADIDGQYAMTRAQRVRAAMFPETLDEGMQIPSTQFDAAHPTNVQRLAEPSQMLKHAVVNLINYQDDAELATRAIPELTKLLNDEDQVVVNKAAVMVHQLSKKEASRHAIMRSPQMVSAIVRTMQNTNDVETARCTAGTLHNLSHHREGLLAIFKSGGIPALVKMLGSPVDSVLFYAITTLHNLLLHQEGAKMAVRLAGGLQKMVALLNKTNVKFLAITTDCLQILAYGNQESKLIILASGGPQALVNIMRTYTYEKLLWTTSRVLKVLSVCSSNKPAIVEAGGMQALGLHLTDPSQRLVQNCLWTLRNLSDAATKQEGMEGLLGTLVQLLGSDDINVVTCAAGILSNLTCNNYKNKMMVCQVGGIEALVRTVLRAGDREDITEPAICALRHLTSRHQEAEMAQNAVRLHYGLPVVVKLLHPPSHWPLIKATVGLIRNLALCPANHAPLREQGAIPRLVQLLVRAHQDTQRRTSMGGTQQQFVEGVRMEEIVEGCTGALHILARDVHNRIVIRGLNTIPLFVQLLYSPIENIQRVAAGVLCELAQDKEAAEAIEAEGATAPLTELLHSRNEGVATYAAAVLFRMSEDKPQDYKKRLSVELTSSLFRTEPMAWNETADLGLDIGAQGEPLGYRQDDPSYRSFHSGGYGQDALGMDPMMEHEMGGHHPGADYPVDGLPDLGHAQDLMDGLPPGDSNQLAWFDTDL
Experimental: The plate was incubated protected from light for 60 minutes at 20° C. prior to read. Reads were performed on a CLARIOstar plate reader (BMG Labtech) in duplicate, and data were fitted to a 1:1 binding model with hill slope using an in-house script. All provided concentrations are final concentrations.

NanoBRET Abs IC50 [1]: > 20 µM
B1: I-1978 (peptide)
peptide: Ac-[αAllylPro]D[tBuAla][S6]DDAAFL[Aib][3Thi][Bta]Q-NH2
modifications: staple 1-4

DLD1 reporter assay Abs IC50 [2]: 10 µM | NanoBRET Abs IC50 [3]: 16.7 µM
B2: I-1081 (peptide)
peptide: Ac-[αAllylPro]D[tBuAla][B5(3)]DDAAFN[PyrS2″][Phe(2-Cl)][Bta]-Alaol
modifications: staple 1-4, 4-11

IC50 [4]: 3.2 µM
B3: I-52: Ac-PL3-Asp-Ala-B5-Asp-Asp-Ala-Ala-Phe-Val-S8-Phe-Trp-Gln-NH2 (stapled peptide) (peptide)
peptide: Ac-[αAllylPro]DA[B5(21)]DDAAFV[S8]FWQ-NH2
modifications: staple 1-4, 4-11
notes: Tested as stapled peptide composition

IC50 [4]: 4.25 µM
B4: I-64: Ac-Ala-Asp-Ile-RdN-Asp-Asp-Ala-Ala-Phe-Gln-S7-Phe-Trp-His-NH2 (stapled peptide) (peptide)
peptide: ADIXDDAAFQXFWH
modifications: not fully specified; N-terminal acetyl (Ac); C-terminal amide (NH2); RdN at position 4 and S7 at position 11 (non-natural olefin amino acids); stapled by olefin metathesis RdN-S7
notes: Same description as I-65
